This note sets out measurements from article PMC2500141 (The Journal of Cell Biology, 2008).

The target in the test is Drp1-6His phosphorylated at Ser600 by CaMKIα (UniProt O00429-4 1-699, phosphoserine at 600 (phosphorylated in vitro by CaMKIα)). The experiment in a line: pull-down.

B1: GST-hFis1 (hFis1-ΔC, without 30 amino acids at the C terminus) (domain or fragment, human, UniProt Q9Y3D6 1-122, looked up)
chain: MEAVLNELVSVEDLLKFEKKFQSEKAAGSVSKSTQFEYAWCLVRSKYNDDIRKGIVLLEELLPKGSKEEQRDYVFYLAVGNYRLKEYEKALKYVRGLLQTEPQNNQAKELERLIDKAMKKDG
Consider B1, for which the binding result is reported as “binds”.
